The values below come from patent US20190194358A1 (ARIZONA BOARD OF REGENTS A BODY CORPORATE OF THE STATE OF …, published 2019).

Sequences and labels used below:
T1: Gal80 (UniProt P04387 1-435, limits assumed)
T1 construct: Cy3/Cy5 labelled on arrays, immobilised for SPR and ELISA
T1 sequence (looked up): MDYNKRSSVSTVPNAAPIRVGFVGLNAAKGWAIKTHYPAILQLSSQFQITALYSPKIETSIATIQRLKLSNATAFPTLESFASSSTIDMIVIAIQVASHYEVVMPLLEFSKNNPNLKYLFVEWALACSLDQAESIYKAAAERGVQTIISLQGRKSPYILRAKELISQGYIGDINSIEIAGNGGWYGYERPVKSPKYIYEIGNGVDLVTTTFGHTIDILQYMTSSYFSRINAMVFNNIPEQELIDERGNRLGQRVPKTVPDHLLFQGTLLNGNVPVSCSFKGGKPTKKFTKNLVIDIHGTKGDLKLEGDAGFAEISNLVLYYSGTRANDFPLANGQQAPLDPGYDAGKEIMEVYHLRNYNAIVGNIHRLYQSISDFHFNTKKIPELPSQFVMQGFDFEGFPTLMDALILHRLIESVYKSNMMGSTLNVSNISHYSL

B1: BP2 variant EGEITEGKGSKKGSC (peptide)
peptide: EGEITEGKGSKKGSC
notes: Synthesised in situ on a light-directed array
B2: BP2 variant EGEITEGKLSKKGSC (peptide)
peptide: EGEITEGKLSKKGSC
B3: BP2 variant EGEITEGKKSKLGSC (peptide)
peptide: EGEITEGKKSKLGSC
notes: as for B1
B4: BP2 variant EGEDTEGKKSKGGSC (peptide)
peptide: EGEDTEGKKSKGGSC
notes: as for B1
B5: BP2 variant EGEITEGKKSKIGSC (peptide)
peptide: EGEITEGKKSKIGSC
notes: as for B1
B6: BP2 variant EGEDTEGKKSKIGSC (peptide)
peptide: EGEDTEGKKSKIGSC
notes: as for B1
B7: BP2 variant EGEITEGKKSKRGSC (peptide)
peptide: EGEITEGKKSKRGSC
notes: as for B1
B8: BP2 variant EGEITEGKKSKTGSC (peptide)
peptide: EGEITEGKKSKTGSC
notes: as for B1
B9: BP2 variant EGEDTEGKKSKTGSC (peptide)
peptide: EGEDTEGKKSKTGSC
notes: as for B1
B10: BP2 variant EGEWTEGKKSKEGSC (peptide)
peptide: EGEWTEGKKSKEGSC
notes: as for B1
B11: BP2 variant EGEKTEGKKSKTGSC (peptide)
peptide: EGEKTEGKKSKTGSC
notes: as for B1
B12: BP2 variant EGEWTEGKKSKIGSC (peptide)
peptide: EGEWTEGKKSKIGSC
notes: as for B1
B13: BP2 variant EGEWTEGKKSKTGSC (peptide)
peptide: EGEWTEGKKSKTGSC
notes: as for B1
B14: BP2 variant EGEITEGKKSKGGSC (peptide)
peptide: EGEITEGKKSKGGSC
notes: as for B1
B15: BP2 variant EGEITEGKKSKSGSC (peptide)
peptide: EGEITEGKKSKSGSC
notes: as for B1
B16: BP2 variant EGEWTEGKKSKRGSC (peptide)
peptide: EGEWTEGKKSKRGSC
notes: as for B1
B17: BP2 variant EGEITEGKKSKEGSC (peptide)
peptide: EGEITEGKKSKEGSC
notes: as for B1
B18: BP2 variant EGEDTEGKKSKEGSC (peptide)
peptide: EGEDTEGKKSKEGSC
notes: as for B1
B19: BP2 variant EGEKTEGKKSKEGSC (peptide)
peptide: EGEKTEGKKSKEGSC
notes: as for B1
B20: BP2 variant EGEKTEGKKSKLGSC (peptide)
peptide: EGEKTEGKKSKLGSC
notes: as for B1
B21: BP2 variant EGEWTEGKKSKLGSC (peptide)
peptide: EGEWTEGKKSKLGSC
notes: as for B1
B22: BP2 variant EGEDTEGKKSKRGSC (peptide)
peptide: EGEDTEGKKSKRGSC
notes: as for B1
B23: BP2 variant EGEDTEGKKSKLGSC (peptide)
peptide: EGEDTEGKKSKLGSC
notes: as for B1
B24: BP2 variant EGEKTEGKKSKGGSC (peptide)
peptide: EGEKTEGKKSKGGSC
notes: as for B1
B25: BP2 variant EGEWTEGKKSKGGSC (peptide)
peptide: EGEWTEGKKSKGGSC
notes: as for B1

The assay has as its target T1, Gal80. Put plainly: light-directed peptide array, 25 µM labelled GAL80 with 1 mg/mL E. coli lysate; relative to template BP2.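 Also: array read-out by fluorescence scanning, library of 10,000 peptides varied at four positions with ten residue choices, each feature present in triplicate.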
Description: The chemically diverse set of 10 amino acids {I,D,W,L,E,G,T,S,K,R} were selected as the amino acids to substitute into the four variable positions for a total of 10,000 unique variant peptides. Three replicates were included in the array to produce a total of 30,000 array features. […] The resulting array was imaged using a commercial fluorescence scanner.
As for B1, the “Fold Enhancement” value was determined as 9.87 fold.

For the molecule B2, the “Fold Enhancement” value was determined as 9.72 fold. Then B3, with 11.1 fold; and B4, with 10.8 fold. Regarding B5, the “Fold Enhancement” value stood at 11.3 fold. The figure for B6 is 10.4 fold. The figure for B7 is 10.5 fold; for B8 it is 10.6 fold. The figure for B9 is 10.2 fold; for B10 it is 10.7 fold. Take B11: the “Fold Enhancement” value turned out to be 8.5 fold. Then B12, with 10.4 fold. Take B13: the “Fold Enhancement” value amounted to 10.5 fold.

Take B14: the “Fold Enhancement” value is 10.8 fold. On to B15, for which the “Fold Enhancement” value turned out to be 9.91 fold. Then B16, with 11 fold; and B17, with 10.9 fold. The figure for B18 is 10.1 fold; for B19 it is 9.7 fold; for B20 it is 9.81 fold. The figure for B21 is 10.7 fold; for B22 it is 10.4 fold; for B23 it is 10.4 fold. For B24, the “Fold Enhancement” value was determined as 9.24 fold. Then B25, with 11.1 fold.
